According to patent US20150203577A1 (Chugai, published 2015):
Residue numbers refer to the chain shown, from its start. In names and notes the source's numbering stands.

B1: H237-MB373/MRAL-k0 (antibody, mouse IgG1, kappa)
heavy: QVQLQESGPGLVKPSETLSLTCAVSGHSISHDHAWSWVRQPPGEGLEWIGFISYSGITNYNPSLQGRVTISRDNSKNTLYLQMNSLRAEDTAVYYCARSLARTTAMDYWGEGTLVTVSSAKTTPPSVYPLAPGSAAQTNSMVTLGCLVKGYFPEPVTVTWNSGSLSSGVHTFPAVLQSDLYTLSSSVTVPSSTWPSETVTCNVAHPASSTKVDKKIVPRDCGCKPCICEAYEVEDVFIFPPKPKDVLTITLTPKVTCVVVDISKDDPEVQFSWFVDDVEVHTAQTQPREEQFNSTFRSVSELPIMHQDWLNGKEFKCRVNSAAFPAPIEKTISKTKGRPKAPQVYTIPPPKEQMAKDKVSLTCMITDFFPEDITVEWQWNGQPAENYKNTQPIMDTDGSYFVYSKLNVQKSNWEAGNTFTCSVLHEGLHNHHTEKSLSHSPGK
light: not shown
notes: mIgG1 with T230E/V231A/P232Y/S238E/S239D (EU); template T1; copies: 2 + 2
B2: H237-MB513/MRAL-k0 (antibody, mouse IgG1, kappa)
heavy: B1 heavy with A230P, Y231A, D235M
light: not shown
notes: copies: 2 + 2
B3: H237-MB475/MRAL-k0 (antibody, mouse IgG1, kappa)
heavy: B1 heavy with A230P, Y231N, D235E
light: not shown
notes: copies: 2 + 2
B4: H237-MB379/MRAL-k0 (antibody, mouse IgG1, kappa)
heavy: B1 heavy with A230V
light: not shown
notes: mIgG1 with T230E/P232Y/S238E/S239D (EU); template T5; copies: 2 + 2
B5: H237-MB524/MRAL-k0 (antibody)
heavy: B1 heavy with A230P, Y231N, D235W
light: not shown
notes: copies: 2 + 2
B6: H237-MB515/MRAL-k0 (antibody, mouse IgG1, kappa)
heavy: B1 heavy with A230P, Y231N, D235M
light: not shown
notes: mIgG1 with T230E/V231P/P232N/S238E/S239M (EU); copies: 2 + 2
B7: H237-MB486/MRAL-k0 (antibody, mouse IgG1, kappa)
heavy: B1 heavy with A230P, Y231A, D235S
light: not shown
notes: copies: 2 + 2
B8: H237-MB382/MRAL-k0 (antibody, mouse IgG1, kappa)
heavy: B1 heavy with A230D
light: not shown
notes: mIgG1 with T230E/V231D/P232Y/S238E/S239D (EU); template T2; copies: 2 + 2
B9: H237-MB476/MRAL-k0 (antibody, mouse IgG1, kappa)
heavy: B1 heavy with E229Q, A230P, Y231N, D235E
light: not shown
notes: mIgG1 with T230Q/V231P/P232N/S238E/S239E (EU); copies: 2 + 2
B10: H237-MB390/MRAL-k0 (antibody, mouse IgG1, kappa)
heavy: B1 heavy with A230P, Y231N
light: not shown
notes: mIgG1 with T230E/V231P/P232N/S238E/S239D (EU); template T8; copies: 2 + 2
B11: H237-MB474/MRAL-k0 (antibody, mouse IgG1, kappa)
heavy: B1 heavy with E229I, A230P, Y231A, D235E
light: not shown
notes: copies: 2 + 2
B12: H237-MB387/MRAL-k0 (antibody, mouse IgG1, kappa)
heavy: B1 heavy with A230N
light: not shown
notes: mIgG1 with T230E/V231N/P232Y/S238E/S239D (EU); template T3; copies: 2 + 2
B13: H237-MB397/MRAL-k0 (antibody, mouse IgG1, kappa)
heavy: B1 heavy with A230T
light: not shown
notes: mIgG1 with T230E/V231T/P232Y/S238E/S239D (EU); template T4; copies: 2 + 2
B14: H237-MB389/MRAL-k0 (antibody, mouse IgG1, kappa)
heavy: B1 heavy with A230P, Y231A
light: not shown
notes: mIgG1 with T230E/V231P/P232A/S238E/S239D (EU); template T6; copies: 2 + 2

target: T1, mouse FcγRII extracellular domain with C-terminal His tag (mouse, UniProt P08101 30-210); experiment: SPR Biacore T200
T1 construct: Made on the basis of NCBI NP-034317.1; also called mFcγRII; mFcgRII
T1 sequence: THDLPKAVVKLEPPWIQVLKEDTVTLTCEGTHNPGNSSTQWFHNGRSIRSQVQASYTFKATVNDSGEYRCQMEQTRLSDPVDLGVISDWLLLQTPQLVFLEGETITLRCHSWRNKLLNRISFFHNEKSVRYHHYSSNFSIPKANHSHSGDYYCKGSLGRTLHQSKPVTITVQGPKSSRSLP

Binder	relative mFcγRII-binding activity (mIgG1 = 1)
B1	390
B2	46.3
B3	214
B4	273
B5	10
B6	165
B7	28.1
B8	321
B9	246
B10	522
B11	42.9
B12	319
B13	555
B14	245

Target: T2, mouse FcγRIII extracellular domain with C-terminal His tag (mouse, UniProt P08508 31-215)
T2 construct: Made on the basis of NCBI NP-034318.2; also called mFcγRIII; mFcgRIII
T2 chain: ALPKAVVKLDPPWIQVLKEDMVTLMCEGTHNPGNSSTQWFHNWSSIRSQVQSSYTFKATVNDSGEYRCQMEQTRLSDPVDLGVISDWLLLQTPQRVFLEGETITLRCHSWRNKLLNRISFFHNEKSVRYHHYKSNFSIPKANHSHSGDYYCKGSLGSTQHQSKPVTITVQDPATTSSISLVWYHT
Experiment: SPR Biacore T200

Binder	relative mFcγRIII-binding activity (mIgG1 = 1)
B1	15.5
B2	0.6
B3	3.5
B4	12.2
B5	0.3
B6	1.7
B7	1.1
B8	12.3
B9	3.4
B10	11.9
B11	1.1
B12	16.7
B13	19.3
B14	7

target: T1, mouse FcγRII extracellular domain with …; experiment: SPR Biacore T200; KD mFcγRIII / KD mFcγRII

Binder	I/A (mFcγRII selectivity)	relative I/A (mFcγRII selectivity) (mIgG1 = 1)
B1	33.8	25.2
B4	30.2	22.5
B8	35.1	26.2
B10	59	44
B12	25.6	19.1
B13	38.7	28.9
B14	47.3	35.3

target: T1, mouse FcγRII extracellular domain with …; experiment: SPR Biacore T200; remark: another data set of the same source

Binder	Kd	relative mFcγRII-binding activity (mIgG1 = 1)
B1	0.538 nM	390
B4	0.768 nM	273
B8	0.655 nM	321
B10	0.403 nM	522
B12	0.659 nM	319
B13	0.379 nM	555
B14	0.858 nM	245

Target: T2, mouse FcγRIII extracellular domain with …
Experiment: SPR Biacore T200
Remark: another data set of the same source

Binder	Kd	relative mFcγRIII-binding activity (mIgG1 = 1)
B1	18.2 nM	15.5
B4	23.2 nM	12.2
B8	23 nM	12.3
B10	23.7 nM	11.9
B12	16.9 nM	16.7
B13	14.6 nM	19.3
B14	40.6 nM	7

target: T1, mouse FcγRII extracellular domain with …; experiment: SPR Biacore T200; remark: another data set of the same source
Experimental: (§1) Each altered antibody was analyzed for its interaction with each Fcγ receptor prepared above using Biacore T100 (GE Healthcare Japan Corp.), Biacore T200 (GE Healthcare Japan Corp.), Biacore A100, or Biacore 4000. The running buffer used was HBS-EP+ (GE Healthcare Japan Corp.). The assay temperature was set to 25° C. The sensor chips used were chips prepared by immobilizing Protein L (ACTIGEN or BioVision) onto Series S Sensor Chip CM5 (GE Healthcare Japan Corp.) or Series S Sensor Chip CM4 (GE Healthcare Japan Corp.) by the amine coupling method.
(§2) In order to calculate the KD value of each altered antibody for FcγR, kinetic analysis was conducted according to the following method: first, the antibody of interest was captured onto any of these chips and allowed to interact with mFcγR diluted with a running buffer. For the obtained sensorgram, the assay results were globally fit into the 1:1 Langmuir binding model using Biacore Evaluation Software to calculate an association rate constant ka (L/mol/s) and a dissociation rate constant kd (1/s). From these values, the dissociation constant KD (mol/L) was calculated.

Binder	Kd
B1	0.538 nM
B2	4.53 nM
B3	0.979 nM
B4	0.768 nM
B5	21 nM
B6	1.27 nM
B7	7.47 nM
B8	0.655 nM
B9	0.854 nM
B10	0.403 nM
B11	4.89 nM
B12	0.659 nM
B13	0.379 nM
B14	0.858 nM

Target: T2, mouse FcγRIII extracellular domain with …
Experiment: SPR Biacore T200
Remark: another data set of the same source
Experimental: as §1, §2

Binder	Kd
B1	18.2 nM
B2	509 nM
B3	81.4 nM
B4	23.2 nM
B5	837 nM
B6	171 nM
B7	258 nM
B8	23 nM
B9	84 nM
B10	23.7 nM
B11	247 nM
B12	16.9 nM
B13	14.6 nM
B14	40.6 nM
